Measured values published in a protein production outcome set (Wang et al. 2014).

Assay: label from the status in PepcDB records
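Further: failed if final PepcDB status was selected cloned or expressed and not failed if soluble or beyond.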

Sequence	protein production
MKQSKIIVAGIGPGSEQDITPAVLAAVREADVVVGYKYYFRFIRDFVRPDAECIDTGMKRERARAEQAFEYAEQGKTVCVISSGDAGIYGMTPLIYEMKRERQSNVEIIALPGI	failed
MKRDHHQFQGRLSNHGTSSSSSSISKDKMMMVKKEEDGGGNMDDELLAVLGYKVRSSEMAEVALKLEQLETMMSNVQEDGLSHLATDTVHYNPSELYSWLDNMLSELNPPPLPASSNGLDPVLPSPEICGFPASDYDLKVIPGNAIYQFPAIDSSSSSNNQNKRLKSCSSPDSMVTSTSTGTQIGGVIGTTVTTTTTTTTAAGESTRSVILVDSQENGVRLVHALMACAEAIQQNNLTLAEALVKQIGCLAVSQAGAMRKVATYFAEALARRIYRLSPPQNQIDHCLSDTLQMHFYETCPYLKFAHFTANQAILEAFEGKKRVHVIDFSMNQGLQWPALMQALALREGGPPTFRLTGIGPPAPDNSDHLHEVGCKLAQLAEAIHVEFEYRGFVANSLADLDASMLELRPSDTEAVAVNSVFELHKLLGRPGGIEKVLGVVKQIKPVIFTVVEQESNHNGPVFLDRFTESLHYYSTLFDSLEGVPNSQDKVMSEVYLGKQICNLVACEGPDRVERHETLSQWGNRFGSSGLAPAHLGSNAFKQASMLLSVFNSGQGYRVEESNGCLMLGWHTRPLITTSAWKLSTAAY	failed
MKRFQKQILLRRILQMDYKQIAKEVIEALGGRENVNSVAHCATRLRVMVKDENKINKEKAENIEKVQGAFFNSGQYQMIFGTGTVNKIYDEVVAQGLPTASKDEQKAEAAKQGNWFQRAIRSFGDVFVPLLPAIVATGLFMGIRGAINNDTVLALFGTTSKAFAATDFYTYTVVLTDTAFAFFPALICWSAFNVFGGSPLLGLVLGLMMVNNALPNAWDVVSGAAKPIYFFDFIPVVGYQNSVLPAFFVGLIGAKFEQWVRKWVPDVLDLLLRPLVVFAVMSALALFIIGPVFHTVESYVLAGTEWILALPFGLAGLVLGGIHQIIVVTGVHHVFNLLEANLISNTGKDPLNAIITAAMTAQAGATLAVGVKTKDSKLKALAFPASLSAVLGITEPAIFGVNLRFGKPFIMGLIAGAAGGWLASILNLAGTGFGVTIVPGTLLYLNGQVLKYVIMVLVTLALGFALTWIFGYKEEEVEAQTEVVAEDIASAGSAPVALQAETIAAPLKGEVVALENVNDPVFSSGAMGKGAAIKPSGNRVVAPFDGEVQIAFPTGHAYGLKSDKGAEVLIHIGIDTVSLDGKGFDAKVQANQRVKKGDVLATFDSSVITEAGLDDTTMVIVTNTADYEDVSLVATGSVAEGGDFIAVK	failed
MKRIILLAFLCTTTLVMAQRINHVQEAIANYDYEAALTLIAKEKPTIPLLLQKGKAQRGLGMNTEALSTYQEIIANDTANTRAYIEAAECCRSLAKYQQALKYYEQALDLNPENKYVRIQYIGLLLSLQKFQDALGESSLMTEKDSSAIALHLQAQSFEGMGELLPATGCYYNIQEKYPDDYLAAAKLAALNIAGSYFNEAIEATEKYRQTDTTNIAVNRQNALAYCLNKDYPTAIQRYEYLVSQGDSSFHTCYYLGISYYAEEKYYEAHDFLEAARKHDPENVNLLYYLGRACAKTSWKKLGVEYLEKALDLTIPKDSNMVRLYIGMTDCYKMAQMPKEQIESIRERYRKYDKQNHKLLYDMAFIYFYSLKDKKNTERCLEAFLKTRPKEDKEEEAKLNERGELVLGTKNYYNAAANWLKDIQSKQKIEDFFLGGNVPAQKPE	failed
MKRKLVTSALPYVNNFPHLGNLIQVLSADVFARFCRLKEYETLYICGTDEYGTATETKALEEKKSPEELCSFYHAIHAEIYNWFNIAFDYFGRTSTPQQTEITQGIFNDLDKNGYITEHTIEQLYCPSCKRFLADRYVLGTCPSCSYDGARGDQCEHCGKLLDPTDLKEPRCSSCGAAPEVRSTTHLYINLPKIVPEYEKWMPKTAEEGRWSNNALQMSKSWLRDGLQERAITRDLKWGIPVPKKGFEDKVFYVWFDAPIGYISITKCWADLAGKDWKAWWLDQNDVELFQFIGKDNIPFHTVIFPCSLIGSGKNWTKLFHMSGTEYLNYENGKFSKSKGVGVFGNDAKESGIPADMWRFYIFYNRPEKNDTQFTWKDFQERVNSELIGNLCNLVNRTATFIHRYYDGKIPQVDGAKSGREDIKSMVKSLREAASASFKKITELSDWAELRDSFHEAFALSSVANKAFQDGEPWKRRETDPEYAEALMSELCYLIKDILILIHPYMPQYADQAAGFFGQKIWSGNIFDGKAPQFNKPEGSFLSWKNLGEREGLKTVENPVIIFKTLDNKVIDAYRERYSGSQKDRKKSEKGCSACKDSGSSKSDAAASSAKPEVKLSPAELFSKKIALKTAKIISVERHPDADKLYIEKLDDGSGEERTILSGLVPFLKEDEILGKTVIIADNLKPRKMRGIESKGMLLAASWYDEEEKEHVELLQAPWAAPGTPVILEGDADISDPEAVKAFYAQKPAAIDADTFFAAPILIEDYIPKIEGKKLLVAGKEMKLEKVKTGEAG	failed
MKRKQESKGAGEKRQGAGGRGQGEKKQGKQGRQGRQGRQGEKSPVPSPQSPIPNPQFTTPNPDEWLQIGKIVSAQGLSGEVRVYPDSDFPERFEVPGTRWLLRPGQTEPQPIELLHGRYLENKNLYVLQLAGVENRSQSEELRGCMLFVPASDRPELGEDEYHVVDLIGMEVFLQASGDLVGAVVDVIPAGNDLLEVSLHEPVTSDKKPKTVLIPFVKAIAPVVDLQTRRIEITPPPGLLELGSGV	failed
MKRLLERSHALLTAPVGATPRVLALVAALLVVPTYVAPLWNLTMFAPQYGDGLRLDIYSYKLEGGNHGQDLKEINLLNHYIGMHDLAEEDFREFKWMPFVMGGLALVFLRAAVMGRVLDLLDSLVVFTWFGLFSLWSFGYKLYSYGHDLAPGAPVKVPPFMPPMIGSAQLANFEVYSYPGLGSYALFAVGLALAVALALGVRATLRRSAAAPLPRGGP	failed
MKRLMFIGPSQCGKTSLTQSLRGEALHYKKTQAIEWSPMAIDTPGEYLENRCLYSALLTSACEADVIALVLNADAQWSPFSPGFTAPMNRPTIGLVTKADLAEPQRISLVAEWLTQAGAQQIFITSALNNSGLDAVLDFLNSKEPLCLTKLEHHHHHH	not failed
MKRLSITVRLTLLFILLLSVAGAGIVWTLYNGLASELKWRDDTTLINRTAQIKQLLIDGVNPDTLPVYFNRMMDVSQDILIIHGDSINKIVNRTNVSDGMLNNIPASETISAAGIYRSIINDTEIDALRINIDEVSPSLTVTVAKLASARHNMLEQYKINSIIICIVAIVLCSVLSPLLIRTGLREIKKLSGVTEALNYNDSREPVEVSALPRELKPLGQALNKMHHALVKDFERLSQFADDLAHELRTPINALLGQNQVTLSQTRSIAEYQKTIAGNIEELENISRLTENILFLARADKNNVLVKLDSLSLNKEVENLLDYLEYLSDEKEICFKVECNQQIFADKILLQRMLSNLIVNAIRYSPEKSRIHITSFLDTNSYLNIDIASPGTKINEPEKLFRRFWRGDNSRHSVGQGLGLSLVKAIAELHGGSATYHYLNKHNVFRITLPQRN	failed
MKRLSLLAATAAFLLASPALAESPFWPVQPKNGPVAAELRGAWKSRGYGWIVQFGPDGPQLFHTAGGACYPDPRREPDPDGVLALWRAEGPGVISLTGDPVGTRYQFDRLPNLPTDCISAGGWTPDRIVAFAADTFAELYPRSAERKLDWPARKAKALTQVGPNATDDQLWLAMAGLLSGLDDPHVELHGMVQGARRDLEPGESPTLMRVRAADPSGDERGWLQAYREGILTGLLQGKGRQAANNRIFWGRVDDVGYLNVLTMGAFARNAAPDDPRPLDAVLDEALSAFVGAKAVVVDVSNNRGGYDIISRRIAARFTAQPRVAYAKVPVGAKAPPQVIKVEPSGAVGFTGPVYVVTSDITVSAGETFTLMMKALPNVTLVGGTTRGAFSDQLPKPLPNGWTLALPAELYRTADGRDLEGRGLAPTVPMAVFPDSDLMGGHAKALSSLFATIREGAAAGATR	failed
MKRLTPYSWLILIIFSSCLTGNKVASTDKQIESLLSQMTLEEKIGMLHSNTMFSSTGVPRLGIPDLHYSDGPHGVRFEGVANGWESARWDNDACSYLPALSALASTWNRDLAQLYGEVLGAECKARGKHVSLAPGVNIHRSLLNGRNWEYFSEDPFFSGELAVPYIQGVQSQGVASCVKHFALNSQAYNQYKVSVEVDERTLHEIYLPAFEAAIQRGGAMAAMAAYNKVRGLWCTESPYLLDTLLRDELGFDGLVVSDWNAVHNTERTALCGMDVEMGTSIKENGKYAFNKYYLADPLLKKVRNGEIPEEAVNKKVRNILKLMIRLDLIGQAPYDTTGMAAKLAIPAHTKAAREIAEESLVLLKNSKDMLPLDPAQYKNVAVIGANATEVFAAGGGSTKLKAKYEVTPLEGLQNLLDGKARIEYAPGYQLSKKAYKVGHWFTNEFDKSDEELYKKAINTAAQAELVIYIGGTSHEHGSDCEGYDKPNLKLPYQQDRLLKGILEVNPNTVVVLISGGPVEIGEWYNDATALLHGSFLGMEGGNALARTLFGEVNPSGKLTTTWCKRLEDMPDHVFGEYPGINDTVRFKEGLMVGYRYFDTYRVVPLFEFGYGLSYTTFTYSNIKMKPVWKDSDTEFAVSFTVTNTGKRYGQEIAQLYLHQNKCSVERPFKELKGFTKVGLKPGESKQVTIKLPRRALQYYDTESKRWKDEPGMFTVLIGASSRDIKLQKDFELKK	failed
MKRMLAWLYAPLVFAGFIGAGVWWMSAGPASASGLLGVFGAALGVSFLAEWCLPYEPGWNRSQGDRLRDSLHALVNESLNALGLLALPGLVALLAHDGLWPQGWPLWGQLLLAIVIADCGITLAHYASHRLAWLWRLHAVHHSVQRMYGFNGLLKHPLHQLIEASAGLLPLVLLGIPLPVAQLLALAIAVQLLLQHSNVDMRLGPLRWIFAWAPVHRFHHMKYGRAGDVNFGLFFNLWDWLLGTAFYRDDYCMRQGDLGIGSRADYPVDYWPQLLEPFKAQRYGAEPVVPEQLRRRVRPASEA	failed
MKRNSSIDLMKSCAIFFVISVHFLLNSGFYDMTIHSTLAIFWIGIRTILITCVPLFLVATGFLMNRKELSAQYVLGIVPVIISYIGISLLVWGVLSLVGKGSDFSTAINGIFDYSTDSYSWYVEMYLGLYLFIPLLNIIWNYKKEIKNYHLYIVFIASLLTFLPSLLNSFGKVIPDYWQICYPVSYYFIGAYLYTYQNEIKKISIGKLVTAFLSALTIFTLTDTFASWNQEFQWLDHNDYFGYQTAIMTVLVIAILWRTPIPKWSVRLLKALSTATLTIYLISDLTDQFVYGFFKHEIPNLSQRVIAGPIIIPVAFTSAALLGIFVGKVLNIPFKRKKERKEN	failed
MKRRRRNSKLKFEETSDQSPTSTAEFSFSLTKIAVSQICQSIGYKATDASALNTLTLTTTKFLQSLAELASSFSNTANRTEVNLFDIVNGLQDIALSTSDCFPGGSTVHDIESQCLIKSAVLRNLSDFVTYAPEIPFAKPLPRRERDGSFGGDLDHVAVTRSVDVTSVPAWLPPFPDSSLCSDRCSKDNRSDHLWENSDSVIRREILPESLKSKSGGRLPVMRDKVRFKMEQRDWSSGGDTRLERSRDNNNGESGRDLEVKKKIREGYTYCAGEWPF	failed
MKRSDKYTDDYIEQRYESQRPHYNTYYQPIGKPPKKKKSKRIFLKAIITILILLIIFFGVMYFISSRANVDDLKSIENKSDFVATENMPNYVKGAFISMEDERFYKHHGFDIKGTTRALFSTISDRDVQGGSTITQQVVKNYYYDNERSFTRKIKELFVARKVEKQYSKNQILSFYMNNIYYGDNQYTVEGAANHYFGVTVDKNNSNMSQISVLQSAILASKVNAPSVYDVNDMSNNYINRVKTNLEKMKQQNFISESQYQEAMSQLGN	not failed
MKRSTRFQQRSLFAIGGLGLLIGVAFVLVQFRATLIFTVFLYYASRPIYRKLESVSTPSYFSEYSLPYRRQILAVTTISVFLLPFLLLFTYTLALVVPAVQQFIGQNDLASGYLSAIQSADSGGLPEPIAGLQISDLLDMSPEEIVTILNAPSVRTWIEQTLGTLISSIGVFADVGIQAFLLLSGTYYLLTDGPRLSRWLFDHFDESGVVESYAIAVDDELSSILFGNILNALVTGIIGIVVFSAYNSISPAAVQVPFAPLVGALTGAGSLIPVVGMKIVYFPVGAILTVGAVASGQATAIGYVLLFLILAFVVVDTIPDFLIRPYVSGNRTHVGLLMFAYILGPIVFGAYGIFLGPILLVLVAQFFRTVAPYVATGEPPDQSKLYEY	failed
